Laboratory results published in the supplement of paper PMC9170038.

System: MS2 coat protein
Experiment: apparent KD of MS2 coat protein; designed switch direction (-1 OFF switch, 1 ON switch): -1; higher = weaker reporter binding
Summary of the method: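 Apparent KD, taken as the median over clusters for each design, was obtained by curve-fitting normalised cluster fluorescence. Designed RNA switches had been transcribed on Illumina chips by stalled E. coli RNA polymerase and titrated with SNAP-549-labelled MS2 coat protein, doubling from 0.7 or 1.5 nM to 3 µM.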

[1] = input ligand: microRNA oligo, concentration not stated
[2] = Eterna round: R95, input ligand: FMN 200 uM
[3] = Eterna round: R95, input ligand: microRNA oligo, concentration not stated
[4] = Eterna round: R95, input ligand: none

| Sequence | apparent KD of MS2 coat protein (input ligand: FMN 200 uM) | apparent KD of MS2 coat protein [1] | apparent KD of MS2 coat protein (input ligand: none) | apparent KD of MS2 coat protein [2] | apparent KD of MS2 coat protein [3] | apparent KD of MS2 coat protein [4] |
| --- | --- | --- | --- | --- | --- | --- |
| AGCGCCAUCGUGAGAUGGCGUAUUACAUGAGGAUCACCCAUGUAGGAUAUCGAUUGCUUUGCAGUCGAGAAGGGCAUGUCCCAG [JL ENG3 3.80 Mod J] (Eterna round: R96, puzzle: Exclusion NG 3) | 23 nM | 19.2 nM | 24.1 nM |  |  |  |
| AGGGAACCCAAGGAUAUUGAGAGUUAAGCCACUUAAGAAGGUGGUACAUGAGGAUCACCCAUGUCCCUUGCAGA [Eternabot (L1) Solution 6] (Eterna round: R97, puzzle: Exclusion 6) | 38.3 nM |  | 41.6 nM |  |  |  |
| AGUCGAAAGACCCACAUGGACAUGAGGAUCACCCAUGUGCAAGCCUUUUGCUCGUCAGCUAGGUCAAAAGACCUAGC [JL Omei mod 1] (Eterna round: R97, puzzle: Sensor, turn-off variant 1) | 655 nM |  | 813 nM |  |  |  |
| UCCUCACUUGAGGAUCACCCAAGUCAGGAUAUUCACUGAACUGCGUAACAGUUCGGCCGAAGAAGGGAUUCGGG [Veatorma] (Eterna round: R97, puzzle: Exclusion 1) | 259 nM |  | 75 nM |  |  |  |
| ACAUGAGGAUCACCCAUGUCGAGUACAUGAGGAUCACCCAUGUAGGAUAUGGUUCGCUUUGCGUGCUAGAAGGAUAUGUGUUGA [salish99_ExNG3_r04_510] (Eterna round: R96, puzzle: Exclusion NG 3) | 321 nM | 148 nM | 226 nM |  |  |  |
| GCAAGCUUUUGCUCGUCUUACAUGAGGAUCACCCAUGUUGGGUCCGGUCGCCGCGGCCGGGCCGGCCGGGCGCCGGG [-38, -65.5 kcal, A 10%] (Eterna round: R97, puzzle: Sensor, turn-off variant 1) | 31.2 nM |  | 33.3 nM |  |  |  |
| UCUUAUUGAGGAUAUACAUUAAAAUACAUGAGGAUCACCCAUGUUCUUCAAUGUAUAUAUGUAGAAGGCAGAAGAU [Mat - Exclusion 5 - JL Mod - D26] (Eterna round: R97, puzzle: Exclusion 5) | 155 nM |  | 36.9 nM |  |  |  |
| CUAGCUAUUGUAGGAUAUCGAUGUGUUUCACAUCGAGAAGGACAUGAGGAUCACCCAUGUGAAGGAUCGUGAGAUCCAAGCUAG [JL ENG1 3.77] (Eterna round: R96, puzzle: Exclusion NG 1) | 128 nM | 25.1 nM | 24.1 nM |  |  |  |
| AAUAACAGAGGAUAUACUGUUUUAUGUGUUUGUUAUUUUGAACAUGAGGAUCACCCAUGUAGAAGGCUGAAUAA [JMF 23] (Eterna round: R96, puzzle: Exclusion 2) | 23.9 nM | 18.8 nM | 25.3 nM |  |  |  |
| AAUUAGCAAGCAAGAUCCCACAUGAGGAUCACCCAUGUGCUCGUCUUAUAAGGUACUGUGACGAGAGUCACGGUACC [Mat - Sensor, turn-off var - Eli Mod - D48] (Eterna round: R97, puzzle: Sensor, turn-off variant 1) | 51.5 nM |  | 50.5 nM |  |  |  |
| CCGAGGUAGCGGUCCUAUGACAUGAGGAUCACCCAUGUACCUCGCUACGAGCUUUUUGCUCAUCUUAUAAUUCUCGG [Atriat] (puzzle: Sensor v3, turn-off variant 1) |  |  |  | 20.9 nM | 26.1 nM | 19.2 nM |
| GAUGUUUAAGGAUAUACAAUGAAUGUAUGCCACAUGGAAAUACAUGAGGAUCACCCAUGUAGAAGGUAAGGGAU [Eternabot (L2) Solution 37] (Eterna round: R97, puzzle: Exclusion 2) | 27.1 nM |  | 20.5 nM |  |  |  |
| GCAUUGAGUGUGAGGAUAUGCUGGUCCUAAGAUCAGCAGAAGGCACAUGAGGAUCACCCAUGUGAAAACAAUGC [Mat - Exclusion 4 - JL Mod - D65] (puzzle: Brourd's mod of Exclusion 4) |  |  |  | 102 nM | 15.2 nM | 17.4 nM |
